Source: paper PMC10842940, “Establishment of dsDNA-dsDNA interactions by the condensin complex” (Molecular cell, 2023)

T1: Cnd1^Ycs4 (fission yeast condensin HEAT-repeat subunit) (S. pombe, UniProt O94679 1-1158)
T1 construct: Cnd1 (Ycs4), S. pombe condensin HEAT-repeat subunit; cDNA cloned into an S. cerevisiae expression vector; source: S. cerevisiae (w303, pep4 deleted), co-overexpressed with the other four condensin subunits from GAL1-10 promoters; in cell extract, and purified as the complex (IgG-agarose, 3C protease elution, heparin, Superose 6)
T1 sequence (looked up): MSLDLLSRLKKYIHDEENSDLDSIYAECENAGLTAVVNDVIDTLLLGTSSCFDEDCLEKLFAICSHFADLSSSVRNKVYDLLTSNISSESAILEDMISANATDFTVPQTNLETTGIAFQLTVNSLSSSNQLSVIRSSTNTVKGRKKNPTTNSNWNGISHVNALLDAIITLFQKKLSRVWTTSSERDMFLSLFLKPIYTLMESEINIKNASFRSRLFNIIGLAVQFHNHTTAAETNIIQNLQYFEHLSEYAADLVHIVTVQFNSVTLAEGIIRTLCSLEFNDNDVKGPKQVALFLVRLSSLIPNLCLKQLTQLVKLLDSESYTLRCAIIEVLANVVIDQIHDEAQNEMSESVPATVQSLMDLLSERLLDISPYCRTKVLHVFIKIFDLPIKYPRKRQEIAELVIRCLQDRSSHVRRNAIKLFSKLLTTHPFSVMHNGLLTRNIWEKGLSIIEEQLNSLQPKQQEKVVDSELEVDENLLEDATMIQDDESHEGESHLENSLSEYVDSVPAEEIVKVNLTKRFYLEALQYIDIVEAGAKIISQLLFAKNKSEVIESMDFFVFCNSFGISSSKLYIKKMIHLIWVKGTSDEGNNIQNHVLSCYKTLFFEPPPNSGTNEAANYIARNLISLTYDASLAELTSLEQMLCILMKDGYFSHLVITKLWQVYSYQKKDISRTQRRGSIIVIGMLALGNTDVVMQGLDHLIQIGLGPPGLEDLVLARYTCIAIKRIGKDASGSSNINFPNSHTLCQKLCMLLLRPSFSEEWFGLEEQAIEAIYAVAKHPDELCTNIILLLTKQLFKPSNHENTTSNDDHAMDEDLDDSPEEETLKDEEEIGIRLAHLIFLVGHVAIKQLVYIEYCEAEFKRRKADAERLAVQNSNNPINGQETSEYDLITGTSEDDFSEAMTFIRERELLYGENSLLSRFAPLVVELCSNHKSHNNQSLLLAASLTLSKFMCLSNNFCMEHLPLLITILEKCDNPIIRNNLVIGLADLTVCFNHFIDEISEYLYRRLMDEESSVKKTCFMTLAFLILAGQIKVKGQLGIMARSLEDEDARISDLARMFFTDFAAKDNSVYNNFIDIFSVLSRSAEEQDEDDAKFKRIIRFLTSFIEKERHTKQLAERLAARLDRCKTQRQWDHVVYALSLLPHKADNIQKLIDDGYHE

B1: Cnd2^Brn1 (fission yeast condensin kleisin subunit) (natural protein, S. pombe, UniProt Q9Y7R3 1-742, looked up)
chain: MKRASLGGHAPVSLPSLNDDALEKKRAKENSRKQRELRRSSALHSITPRRESLNNSSPFNSSHQVPVLSNFEEWIKLATDNKINSTNTWNFALIDYFHDMSLLRDGEDINFQKASCTLDGCVKIYTSRIDSVATETGKLLSGLANDSKVLQQTEEGEDAENDDEDLQKKKERKRAQRSVKTLVKDFESIRAKKFELECSFDPLFKKMCADFDEDGAKGLLMNHLCVDQHGRIVFDSSDTVIKDLENKDVEAESQEAVVAAPIESHDTEMTNVHDNISRETLNGIYKCYFTDIDQLTICPSLQGFEFDSKGNLDVSLLKSLSDEVNMITTTSLVDNTMEKTDADAASLSSDSDGEEGHIVHALEEMAYDEENPYVDVVPKAMDESENPDFGVDTEVNMADGSTMNENYSIISTAAANGVYEYFDKSMKKNWAGPEHWRIQALRKNINNASTVFNSSNTAESSDNVSRSLSSTERKKRRELDNAIDFLQEVDVEALFTPATSSLKLPKSHWKRHNRCLLPDDYQYDSKRLLQLFLKPKMSVLPNADGEGQLQLNKALDDENDLDGIQPHGFDSDGSDNVDEGIPPYGFGDSDSPKQTPLLTPPSSSGFGDNLLLTARLAKPDMLNYAKRAKKVDVRVLKEKLWKCLDLENTIKENSINSHIEGSEMESEETNMPVKSFFSTVNQLEETYEKKELKDISTSFAFICVLHLANEHNLELTSNEDFSDVFIRPGPNLTTLEALENDV
notes: Cnd2 (Brn1), S. pombe condensin kleisin subunit; cDNA cloned into an S. cerevisiae expression vector; The 2xProtA tag was still on the chain while the complex was captured on rabbit IgG-agarose (assay a1); also called Cnd2-2xProtA; source: S. cerevisiae (w303, pep4 deleted), co-overexpressed with the other four condensin subunits from GAL1-10 promoters; in cell extract, and purified as the …

Key:
[1] = system: condensin pentamer;condensin pentamer (Schizosaccharomyces pombe;Schizosaccharomyces pombe); assay: second DNA capture by condensin preloaded on bead-bound DIG-5kb-DIG; details: binding buffer, pH and temperature not given in material; Mg2+ and ATP; washes at 500 mM NaCl (topological loading) or 100 mM NaCl (gripping state)
[2] = system: condensin pentamer (Schizosaccharomyces pombe); assay: condensin immunoprecipitation, 500 mM NaCl wash; details: Mg2+, ATP, binding buffer, pH and temperature not given in material, washes at 500 mM NaCl (topological loading) or 100 mM NaCl (gripping state)
[3] = molecular target: T1, Cnd1^Ycs4 (fission yeast condensin …); assay: cross-linking; sulfo-SDA cross-link mass spectrometry (CLMS) of the purified five-subunit condensin complex with equimolar 124 bp linear dsDNA and 0.5 mM ADP·BeF3 (DNA-gripping state); CL buffer, 30°C 30 min, UV 365 nm on ice; 1% FDR at residue-pair level; details: both partners purified

Row | Molecule | binding signal (% of second dsDNA captured) [1] | binding signal (% of input DNA recovered) [2] | binding result [3]
1 | supercoiled pBlueScript KSII(+) | 10 | > 40 | –
2 | B1 | – | – | binds
